For one molecule, Kd results are on record in article PMC9293779, “Elucidation of binding preferences of YEATS domains to site-specific acetylated nucleosome core particles” (The Journal of Biological Chemistry, 2022).

What all share (test): ITC
Experiment [1] deals with T1, H3K14ac (1–19) peptide (Homo sapiens).
T1 chain: ARTKQTARKSTGGKAPRKQ
The conditions noted are these: domain or fragment; chains chain; modification not given; acetyl-Lys14 (mature histone numbering; entry K15); terminal caps or added residues not given.

Experiment [2] concerns the target T2, H3K4ac (1–19) peptide (Homo sapiens).
T2 chain: ARTKQTARKSTGGKAPRKQ
The conditions noted are these: domain or fragment; chains chain; modification not given; acetyl-Lys4 (mature histone numbering; entry K5); terminal caps or added residues not given.

The target of experiment [3] is Unmodified H3 (1–19) (Homo sapiens). The conditions noted are these: domain or fragment; chains chain; modification not given.

B1: AF9-YEATS domain (residues 1–138) for X-ray analysis and ITC, P42568 1-138 (protein)
chain: MASSCAVQVKLELGHRAQVRKKPTVEGFTHDWMVFVRGPEHSNIQHFVEKVVFHLHESFPRPKRVCKDPPYKVEESGYAGFILPIEVYFKNKEEPRKVRFDYDLFLHLEGHPPVNHLRCEKLTFNNPTEDFRRKLLKA
By Kd is commonly meant the equilibrium constant for the complex coming apart. Low readings indicate higher affinity, high ones lower affinity. On to B1, for which the Kd was > 1000 µM in experiment [1], 320 µM in experiment [2] and > 1000 µM in experiment [3].
